The target in assay [1] is T1, cSNK:BSA conjugate (bovine, head-to-tail cyclized; conjugated to BSA carrier).
T1 construct: also called BSA-cSNK
Briefly: BLI (Octet), compared to hu5E3. For orientation: Biolayer interferometry detects binding as a change in optical thickness at a sensor tip.

For assay [2], the target named is T1, cSNK:BSA conjugate. Put plainly: BLI 2:1 fit, column kdis; 6.25 nM row. How it is done:
(§1) Biolayer interferometry (Octet […], ForteBio) was used to qualitatively/quantitatively assess the interactions between humanized versions of 5E3 and cSNK:BSA conjugate. […] MAbs were loaded onto sensors and then washed in PBST. Each sensor was associated with one of several cSNK:BSA standards (100 nM to 0 nM) and then washed in PBST. Data was processed statistically using ForteBio Data Analysis software to determine the strength of antigen-antibody binding (KD). For each mAb analyzed, a 2:1 model provided the “best fit”.

For assay [3], the target named is T1, cSNK:BSA conjugate. Put plainly: BLI 2:1 fit, column kdis; 12.5 nM row. How it is done: as §1
In assay [4] the target is T1, cSNK:BSA conjugate. Put plainly: BLI 2:1 fit, column kon2; 25 nM row. How it is done:
as §1

The target in assay [5] is T1, cSNK:BSA conjugate. Put plainly: BLI 2:1 fit, column kdis2; 50 nM row. As for the experimental part:
as §1

Assay [6] has as its target T1, cSNK:BSA conjugate. Briefly: BLI 2:1 fit, column kdis2; 6.25 nM row. How it is done:
as §1

Assay [7] concerns the target T1, cSNK:BSA conjugate. Briefly: BLI 2:1 fit, column KD2; 100 nM row. How it is done:
as §1

Assay [8] has as its target T1, cSNK:BSA conjugate. Put plainly: BLI 2:1 fit, column kon2; 100 nM row. As for the experimental part:
as §1

Assay [9] addresses T1, cSNK:BSA conjugate. Put plainly: BLI (Octet RED96), 2:1 kinetics, KD1, summary table. How it is done: as §1
(§2) Table 7 summarizes the affinity constants of humanized 5E3 IgG1, IgG2 and IgG4 constructs. The KD ranges were determined using 2:1 kinetics of binding of analyte (BSA-cSNK) in solution to two different binding sites on the surface (immobilized bivalent, monospecific 5E3) in comparison to murine 5E3 using biolayer interferometry (Octet RED96).

Assay [10] deals with T1, cSNK:BSA conjugate. Put plainly: BLI 2:1 fit, column kon; 25 nM row. As for the experimental part:
as §1

Assay [11] addresses T1, cSNK:BSA conjugate. Briefly: BLI 2:1 fit, column kon2; 6.25 nM row. As for the experimental part: as §1
The target in assay [12] is T1, cSNK:BSA conjugate. Put plainly: BLI 2:1 fit, column kon2; 50 nM row. How it is done: as §1
Assay [13] concerns the target T1, cSNK:BSA conjugate. Briefly: BLI 2:1 fit, column kon; 100 nM row. As for the experimental part: as §1
Assay [14] concerns the target T1, cSNK:BSA conjugate. Put plainly: BLI 2:1 fit, column KD; 100 nM row; 100 nM row, column KD (site with kon 4.16E+06, kdis 3.38E-02). As for the experimental part: as §1
Assay [15] has as its target T1, cSNK:BSA conjugate. Put plainly: BLI 2:1 fit, column kon; 50 nM row. How it is done:
as §1

Assay [16] concerns the target T1, cSNK:BSA conjugate. Briefly: BLI 2:1 fit, column KD; 12.5 nM row. As for the experimental part:
as §1

In assay [17] the target is T1, cSNK:BSA conjugate. Briefly: BLI 2:1 fit, column kdis2; 12.5 nM row. How it is done:
as §1

In assay [18] the target is T1, cSNK:BSA conjugate. Briefly: BLI (Octet RED96), 2:1 kinetics, KD2, summary table. How it is done:
as §1, §2

Assay [19] addresses T1, cSNK:BSA conjugate. Put plainly: BLI 2:1 fit, column KD; 50 nM row. As for the experimental part:
as §1

In assay [20] the target is T1, cSNK:BSA conjugate. Put plainly: BLI 2:1 fit, column kdis2; 25 nM row. How it is done:
as §1

Assay [21] addresses T1, cSNK:BSA conjugate. Put plainly: BLI 2:1 fit, column KD; 25 nM row. As for the experimental part:
as §1

Assay [22] concerns the target T1, cSNK:BSA conjugate. Briefly: BLI 2:1 fit, column kdis; 25 nM row. As for the experimental part: as §1
In assay [23] the target is T1, cSNK:BSA conjugate. Put plainly: BLI 2:1 fit, column KD2; 25 nM row. How it is done: as §1
In assay [24] the target is T1, cSNK:BSA conjugate. Briefly: BLI 2:1 fit, column KD2; 12.5 nM row. How it is done: as §1
For assay [25], the target named is T1, cSNK:BSA conjugate. Briefly: BLI 2:1 fit, column KD2; 6.25 nM row. How it is done: as §1
In assay [26] the target is T1, cSNK:BSA conjugate. Briefly: BLI 2:1 fit, column kon; 12.5 nM row. How it is done: as §1
The target in assay [27] is T1, cSNK:BSA conjugate. Put plainly: BLI 2:1 fit, column kdis; 100 nM row. As for the experimental part:
as §1

The target of assay [28] is T1, cSNK:BSA conjugate. Put plainly: BLI 2:1 fit, column KD; 6.25 nM row. How it is done: as §1
For assay [29], the target named is T1, cSNK:BSA conjugate. Put plainly: BLI 2:1 fit, column kon2; 12.5 nM row. How it is done: as §1
In assay [30] the target is T1, cSNK:BSA conjugate. Briefly: BLI 2:1 fit, column kdis2; 100 nM row. As for the experimental part:
as §1

In assay [31] the target is T1, cSNK:BSA conjugate. Put plainly: BLI 2:1 fit, column kdis; 50 nM row. As for the experimental part:
as §1

Assay [32] has as its target T1, cSNK:BSA conjugate. Briefly: BLI 2:1 fit, column KD2; 50 nM row. How it is done: as §1
Assay [33] has as its target T1, cSNK:BSA conjugate. Briefly: BLI 2:1 fit, column kon; 6.25 nM row. How it is done: as §1

This note sets out measurements from patent publication US20170008955A1 (CNJ, published 2017).

As a reminder, the koff is the first-order rate constant of dissociation. For orientation: kon means the second-order rate constant of association. High values mean fast association, low ones slow association. As a reminder, the Kd is the constant that tells how readily two partners part at equilibrium. A high value points to weaker binding.

T1 sequence (P02769 25-607 limits assumed): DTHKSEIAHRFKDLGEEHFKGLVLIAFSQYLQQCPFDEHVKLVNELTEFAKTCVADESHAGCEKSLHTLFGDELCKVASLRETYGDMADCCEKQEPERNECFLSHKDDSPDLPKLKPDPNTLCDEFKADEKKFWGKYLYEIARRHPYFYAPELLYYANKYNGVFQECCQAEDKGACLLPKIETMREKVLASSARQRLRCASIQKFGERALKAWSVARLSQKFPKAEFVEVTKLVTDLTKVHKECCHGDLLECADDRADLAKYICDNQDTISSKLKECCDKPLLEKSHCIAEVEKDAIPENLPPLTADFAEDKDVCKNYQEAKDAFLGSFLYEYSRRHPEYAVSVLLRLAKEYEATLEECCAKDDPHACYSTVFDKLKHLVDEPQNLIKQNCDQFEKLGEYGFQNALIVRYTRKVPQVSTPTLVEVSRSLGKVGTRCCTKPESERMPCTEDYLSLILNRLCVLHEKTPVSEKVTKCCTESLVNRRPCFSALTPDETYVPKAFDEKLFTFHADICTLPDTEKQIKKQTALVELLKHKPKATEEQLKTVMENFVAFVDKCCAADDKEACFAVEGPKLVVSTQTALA

B1: 5E3KCDR3-Y94F (antibody, IgG1, V domains shown)
VH: QVQLQQSGPEVKKPGASVKISCKASGYIFTSYYIQWVIHAPGQGLEWIGWIYPGNVNTKYNEKFKGKATLTADKSSSTAYMELSSLTSEDTAVYFCARMDYEAHYWGQGTTVTVSS
VL: DIQMTQSPSSLSASVGDRVTITCRASQEISGYLTWLQQKPEGAIKRLIYAASTLDSGVPKRFSGSRSGSDYSLTISSLQPEDFATYNCLQYANFPRTFGGGTKLEIK
notes: hu5E3 IgG1 vector mutant
As for B1, the binding result with cSNK:BSA conjugate [1] is “no binding (tested: 100 nM)”.

B2: rehu5E3-IgG2 (antibody, V domains shown)
VH: QVQLQQSGPEVVKPGASVKISCKASGYIFTSYYIQWVIHAPGQGLEWIGWIYPGNVNTKYNEKFKGKATLTADKSSSTAYMELSSLRSEDSAVYFCARMDYEAHYWGQGTLVTVSS
VL: DIQMTQSPSSLSASLGDRVTLTCRASQEISGYLTWLQQKPEKAIKRLIYAASTLDSGVPKRFSGSRSGSDYTLTISSLQPEDFADYNCLQYANYPRTFGGGTKLEIK
notes: human IgG2/kappa
Take B2: the koff in the assay with cSNK:BSA conjugate [2] turned out to be 0.00089 s⁻¹; with cSNK:BSA conjugate [3] it was 0.00089 s⁻¹; with cSNK:BSA conjugate [5], 0.00089 s⁻¹; with cSNK:BSA conjugate [6], 0.0338 s⁻¹; in the assay with cSNK:BSA conjugate [17] it was 0.0338 s⁻¹; with cSNK:BSA conjugate [20], 0.0338 s⁻¹. For the same molecule, the koff in the assay with cSNK:BSA conjugate [22] was determined as 0.00089 s⁻¹; in the assay with cSNK:BSA conjugate [27], 0.0338 s⁻¹; in the assay with cSNK:BSA conjugate [30], 0.00089 s⁻¹; in the assay with cSNK:BSA conjugate [31], 0.0338 s⁻¹. The kon with cSNK:BSA conjugate [4] came out at 4.16e+06 M⁻¹ s⁻¹; with cSNK:BSA conjugate [8] it was 698000 M⁻¹ s⁻¹; with cSNK:BSA conjugate [10], 698000 M⁻¹ s⁻¹; in the assay with cSNK:BSA conjugate [11] it was 4.16e+06 M⁻¹ s⁻¹; in the assay with cSNK:BSA conjugate [12] it was 698000 M⁻¹ s⁻¹; with cSNK:BSA conjugate [13], 4.16e+06 M⁻¹ s⁻¹. For the same molecule, the kon in the assay with cSNK:BSA conjugate [15] is 4.16e+06 M⁻¹ s⁻¹; with cSNK:BSA conjugate [26], 698000 M⁻¹ s⁻¹; with cSNK:BSA conjugate [29], 4.16e+06 M⁻¹ s⁻¹; in the assay with cSNK:BSA conjugate [33], 698000 M⁻¹ s⁻¹. Also, the Kd with cSNK:BSA conjugate [7] was 1.28 nM; with cSNK:BSA conjugate [9] it was 8.14 nM; with cSNK:BSA conjugate [14], 8.14 nM; in the assay with cSNK:BSA conjugate [16] it was 1.28 nM; with cSNK:BSA conjugate [18], 1.28 nM; with cSNK:BSA conjugate [19], 8.14 nM. Also, the Kd in the assay with cSNK:BSA conjugate [21] was found to be 1.28 nM; with cSNK:BSA conjugate [23], 8.14 nM; with cSNK:BSA conjugate [24] it was 8.14 nM; with cSNK:BSA conjugate [25] it was 8.14 nM; with cSNK:BSA conjugate [28], 1.28 nM; with cSNK:BSA conjugate [32] it was 1.28 nM.
